Earlier results in PMC4828448.
pKd: −log10 of the molar value.

Molecular target: nisin (Lactococcus lactis) (UniProt P13068)
UniProt P13068, sequence (P13068 24-57): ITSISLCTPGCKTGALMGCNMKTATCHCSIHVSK

pKd: 6.00
Substance: NisI (from UniProt P42708)
